From patent US20210107983A1 (Boehringer Ingelheim, published 2021)

T1: Cyno B7H6-His (cynomolgus monkey)
T1 construct: also called CyB7H6; cyB7-H6
T1 chain: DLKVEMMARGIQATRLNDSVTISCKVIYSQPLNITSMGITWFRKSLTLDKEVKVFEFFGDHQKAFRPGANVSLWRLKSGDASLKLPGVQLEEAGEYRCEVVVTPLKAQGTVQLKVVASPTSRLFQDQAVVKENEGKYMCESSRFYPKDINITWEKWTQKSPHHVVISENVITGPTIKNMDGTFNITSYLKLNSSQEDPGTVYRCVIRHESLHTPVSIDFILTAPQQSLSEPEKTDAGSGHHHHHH


What was measured:
Cyno B7H6-His [1] = molecular target: T1, Cyno B7H6-His; experiment: ratio of SPR KDs cyno/human
Method: (§1) About 700 RU of the B7H6/CD3 binding protein was captured on flow cell 2 of the Protein A/G surface for 60 s at a flow rate of 10 μL/min. The analytes HuB7H6, CyB7H6 and HuB7H1 were injected across both flow cells over captured B7H6/CD3 binding protein for 300 s at a flow rate of 30 μL/min with a dissociation of 1200 s. The concentrations of HuB7H6 and CyB7H6 were 0 nM, 6.25 nM, 12.5 nM, 25 nM, 50 nM and 100 nM. The concentrations of HuB7H1 were 0 nM and 1 μM. The surface was regenerated by injecting 10 mM glycine-HCl, pH 1.5 for 20 s at a flow rate of 30 μL/min across both flow cells.
(§2) The reference flow cell 1 (interactions with sensor surface) and blank (HBS-EP+ or 0 nM analyte) were subtracted from the raw data.
(§3) The B7H6/CD3 binding protein analyte was injected horizontally over the immobilized surface for 300 s at a flow rate of 30 μL/min with a dissociation of 600 s. The concentrations of the B7H6/CD3 binding protein used were 0 nM, 1.2 nM, 3.7 nM, 11.1 nM, 33.3 nM and 100 nM.

Cyno CD3 E+G HuFc-6xHis [2] = molecular target: T2, Cyno CD3 E+G HuFc-6xHis (cynomolgus monkey); experiment: ratio of SPR KDs cyno/human
T2 construct: also called CyCD3E+G-hFc; cyCD3
Method: as §1, §2, §3

[3] = molecular target: T3, chicken egg white lysozyme (chicken, UniProt P00698 19-147); experiment: SPR, 1 µM binder over immobilized lysozyme
T3 construct: unrelated positively charged protein, amine-coupled to the chip; also called Lysozyme (positive)
Method: (§4) The experiment was performed on a Biacore® T200 SPR system (GE Healthcare Life Sciences). The dilution, surface preparation, and binding experiments were performed at 25° C. in 1×HBS-EP buffer prepared from 10×HBS-EP. The flow rate for both the immobilization protocol and binding experiment was at 5 μL/min.
(§5) To prepare the surface for the non-specific binding experiment, chicken egg white lysozyme and trypsin inhibitor from Glycine max soybean were coupled manually to a Biacore® series S CM5 sensor chip (GE Healthcare sciences) with the surface density of 3000-5000 RU using the amine coupling kit according to the manufacture instructions. Samples were prepared at 1 μM in 1×HBS-EP buffer. The samples were injected over activated surfaces with a 10 min association and 15 min dissociation. The data was collected using Biacore® T200 Control Software version 2.0.1 and analyzed using Biacore® T200 Evaluation Software version 3.0 (GE Healthcare Life Sciences).

Human CD3 E+G HuFc-6xHis = molecular target: T4, Human CD3 E+G HuFc-6xHis (human); experiment: SPR, CD3E+G-hFc immobilized, binder analyte
T4 construct: also called HuCD3E+G-hFc; huCD3
Method: (§6) To determine the affinity of the B7H6/CD3 binding protein to human and cyno CD3E+G-hFc, the experiment was performed on a Bio-Rad ProteOn™ XPR36 instrument. Briefly, HuCD3E+G-hFc and CyCD3E+G were amine-coupled on a ProteOn™ GLM sensor chip (Bio-Rad) and the B7H6/CD3 binding protein was flowed over the immobilized surface. The running buffer for this experiment and all serial dilutions were prepared in HBS-EP+. The GLM sensor chip was normalized according to Bio-Rad's recommendations. The sensor chip was activated with an equal mixture of EDC/s-NHS in the horizontal direction for 300 s at a flow rate of 30 μL/min HuCD3E+G-hFc was immobilized in the vertical direction at 0.4 μg/mL, 0.2 μg/mL and 0.1 μg/mL in 10 mM acetate pH 4.5 to L1, L2 and L3, respectively, for 300 s at a flow rate of 30 μL/min resulting in about 100 RU of HuCD3E+G-hFc on L1, 40 RU of HuCD3E+G-hFc on L2 and 0 RU of HuCD3E+G-hFc on L3. CyCD3E+G-hFc was immobilized in the vertical direction at 0.4 μg/mL, 0.2 μg/mL and 0.1 μg/mL in 10 mM acetate pH 4.5 to L4, L5 and L6, respectively, for 300 s at a flow rate of 30 μL/min resulting in about 385 RU of […], 170 RU of CyCD3E+G-hFc on L5 and 50 RU of CyCD3E+G-hFc on L6. The sensor chip was deactivated with 1M ethanolamine-HCl in the horizontal direction for 300 s at a flow rate of 30 μL/min.
as §3
(§7) The interspot (interactions with sensor surface) and blank (HBS-EP+ or 0 nM analyte) were subtracted from the raw data.

Cyno CD3 E+G HuFc-6xHis [4] = molecular target: T2, Cyno CD3 E+G HuFc-6xHis; experiment: SPR, CD3E+G-hFc immobilized, binder analyte
Method: as §6, §3, §7

Cyno B7H6-His [5] = molecular target: T1, Cyno B7H6-His; experiment: SPR, binder captured on Protein A/G, B7H6 analyte
Method: (§8) To determine the affinity of human and cyno B7H6 and human B7H1 to B7H6/CD3 binding proteins, the experiment was performed on a Biacore™ 8K instrument (GE Healthcare Life Sciences). Briefly, the B7H6/CD3 binding protein was captured via Protein A/G. The running buffer for this experiment and all serial dilutions were prepared in HBS-EP+. The CM5 sensor chip was activated with an equal mixture of EDC/NHS across both flow cells for 420 s at a flow rate of 10 μL/min and immobilized with recombinant Protein A/G (50 μg/ml in 10 mM NaOAc, pH 4.5) across all flow cells for 420 s at a flow rate of 10 μL/min resulting in about 2500 RU of Protein A/G on the surface. The sensor chip was deactivated with 1M ethanolamine-HCl across all flow cells for 420 s at a flow rate of 10 μL/min.
as §1, §2

Human B7H1 = molecular target: T5, Human B7H1 (human, UniProt Q9NZQ7 20-239); experiment: SPR, binder captured on Protein A/G, HuB7H1 analyte
T5 construct: also called HuB7H1; huB7-H1
Method: as §8, §1, §2

[6] = molecular target: T6, trypsin inhibitor from Glycine max soybean (Glycine max (soybean)); experiment: SPR, 1 µM binder over immobilized trypsin inhibitor
T6 construct: unrelated negatively charged protein, amine-coupled to the chip
Method: as §4, §5

T6 sequence (P01070 25-205): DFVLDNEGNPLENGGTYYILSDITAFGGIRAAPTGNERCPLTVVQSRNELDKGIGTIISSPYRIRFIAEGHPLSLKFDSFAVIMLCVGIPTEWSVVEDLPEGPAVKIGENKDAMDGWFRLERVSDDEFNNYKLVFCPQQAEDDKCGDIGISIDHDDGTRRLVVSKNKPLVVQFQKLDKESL
T2 sequence (chain, as listed by the source limits assumed): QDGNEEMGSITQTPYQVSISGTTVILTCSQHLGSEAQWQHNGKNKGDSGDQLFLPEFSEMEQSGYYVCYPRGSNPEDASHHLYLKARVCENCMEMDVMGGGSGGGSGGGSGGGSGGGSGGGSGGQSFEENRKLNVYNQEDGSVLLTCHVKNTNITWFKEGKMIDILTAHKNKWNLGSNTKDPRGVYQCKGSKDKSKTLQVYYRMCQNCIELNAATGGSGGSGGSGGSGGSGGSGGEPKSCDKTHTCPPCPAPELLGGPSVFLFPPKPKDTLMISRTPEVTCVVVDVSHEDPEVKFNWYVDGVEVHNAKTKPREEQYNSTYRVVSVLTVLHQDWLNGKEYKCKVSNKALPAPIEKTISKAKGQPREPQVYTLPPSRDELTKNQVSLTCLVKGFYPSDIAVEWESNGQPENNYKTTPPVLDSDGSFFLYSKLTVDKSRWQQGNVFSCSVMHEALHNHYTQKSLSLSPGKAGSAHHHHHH
T5 sequence (Q9NZQ7 other isoform, or with tags, fused parts or gaps limits assumed): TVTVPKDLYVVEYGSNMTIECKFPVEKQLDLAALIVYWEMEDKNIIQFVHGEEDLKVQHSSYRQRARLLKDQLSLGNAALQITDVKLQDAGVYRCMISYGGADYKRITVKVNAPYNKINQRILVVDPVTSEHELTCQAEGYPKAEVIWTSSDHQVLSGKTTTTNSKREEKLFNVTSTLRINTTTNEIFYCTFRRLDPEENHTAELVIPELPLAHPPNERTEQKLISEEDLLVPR
T3 sequence (P00698 19-147): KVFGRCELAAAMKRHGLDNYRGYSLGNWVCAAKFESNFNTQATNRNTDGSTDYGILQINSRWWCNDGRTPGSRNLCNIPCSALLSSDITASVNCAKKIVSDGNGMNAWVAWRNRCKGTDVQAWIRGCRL
T4 sequence (chain, as listed by the source limits assumed): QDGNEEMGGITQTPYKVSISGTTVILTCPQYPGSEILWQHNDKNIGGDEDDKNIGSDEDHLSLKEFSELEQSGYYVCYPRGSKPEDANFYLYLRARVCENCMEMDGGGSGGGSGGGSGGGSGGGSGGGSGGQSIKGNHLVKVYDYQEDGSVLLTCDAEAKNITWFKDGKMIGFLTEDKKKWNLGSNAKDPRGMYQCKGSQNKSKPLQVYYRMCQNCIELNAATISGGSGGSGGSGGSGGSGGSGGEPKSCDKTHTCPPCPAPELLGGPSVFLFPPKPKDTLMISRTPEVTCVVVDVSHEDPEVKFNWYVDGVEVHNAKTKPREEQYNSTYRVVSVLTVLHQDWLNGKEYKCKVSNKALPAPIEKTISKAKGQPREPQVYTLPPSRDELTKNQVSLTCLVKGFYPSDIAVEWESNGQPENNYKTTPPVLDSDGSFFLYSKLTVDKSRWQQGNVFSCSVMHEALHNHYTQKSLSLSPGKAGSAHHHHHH

cy/hu B7-H6 (Cyno B7H6-His [1]) | cy/hu CD3 (Cyno CD3 E+G HuFc-6xHis [2]) | Non-specific binding (RU) [3] | Kd (Human CD3 E+G HuFc-6xHis) | Kd (Cyno CD3 E+G HuFc-6xHis [4]) | Kd (Cyno B7H6-His [5]) | binding result (Human B7H1) | Non-specific binding (RU) [6] | Binder
0.9 | 1.5 | 12.4 RU | 4.8 nM | 7.1 nM | 1.1 nM | no binding (tested: 1 µM) | 26.4 RU | B7H6#14/CD3#3 (bispecific antibody, human IgG1, kappa, L234A L235A, scFab-Fc heterodimer) chain 1: DIQMTQSPSSLSASVGDRVTITCKASQNVGKYVAWYQQKPGKAPKSLIYSASNRYDGVPSRFSGSGSGTDFTLTISSLQPEDFATYFCQQYISYPLTFGAGTKLEIKRTVAAPSVFIFPPSDEQLKSGTASVVCLLNNFYPREAKVQWKVDNALQSGNSQESVTEQDSKDSTYSLSSTLTLSKADYEKHKVYACEVTHQGLSSPVTKSFNRGECGGGGSEGKSSGSGSESKSTEGKSSGSGSESKSTGGGGSQVQLVQSGAEVKKPGASVKVSCKASGYTFTNYWMNWMKQAPGQGLEWIGGIYLNGDSTDYNEKFKGKVTMTVDTSTSTVYMELSSLRSEDTAVYYCTRRGDYFGDFWGQGTLVTVSSASTKGPSVFPLAPSSKSTSGGTAALGCLVKDYFPEPVTVSWNSGALTSGVHTFPAVLQSSGLYSLSSVVTVPSSSLGTQTYICNVNHKPSNTKVDKRVEPKSCDKTHTCPPCPAPEAAGGPSVFLFPPKPKDTLMISRTPEVTCVVVDVSHEDPEVKFNWYVDGVEVHNAKTKPREEQYNSTYRVVSVLTVLHQDWLNGKEYKCKVSNKALPAPIEKTISKAKGQPREPQVYTLPPSREEMTKNQVSLWCLVKGFYPSDIAVEWESNGQPENNYKTTPPVLDSDGSFFLYSKLTVDKSRWQQGNVFSCSVMHEALHNHYTQKSLSLSPG chain 2: not shown
1.7 | – | 7.9 RU | 7.8 nM | – | 3.1 nM | no binding (tested: 1 µM) | 43.5 RU | B7H6#24/CD3#1 (bispecific antibody, human IgG1, kappa, lambda, L234A L235A, scFab-Fc heterodimer, one B7H6 chain and one CD3 chain) chain 1: DIQMTQSPSSLSASVGDRVTITCKASQNVGKYVAWYQQKPGKAPKSLIYSASNRYDAVPSRFSGSGSGTDFTLTISSLQPEDFTTYYCQQYISYPLTFGAGTKLEIKRTVAAPSVFIFPPSDEQLKSGTASVVCLLNNFYPREAKVQWKVDNALQSGNSQESVTEQDSKDSTYSLSSTLTLSKADYEKHKVYACEVTHQGLSSPVTKSFNRGECGGGGSEGKSSGSGSESKSTEGKSSGSGSESKSTGGGGSQVQLVQSGAEVKKPGASVKVSCKASGYTFTNYWMNWMRQAPGQGLEWMGGIYLSGDSTDYNEKFKGRVTMTVDTSTSTVYMELSSLRSEDTAVYYCTRRGDYFGDFWGQGTLVTVSSASTKGPSVFPLAPSSKSTSGGTAALGCLVKDYFPEPVTVSWNSGALTSGVHTFPAVLQSSGLYSLSSVVTVPSSSLGTQTYICNVNHKPSNTKVDKRVEPKSCDKTHTCPPCPAPEAAGGPSVFLFPPKPKDTLMISRTPEVTCVVVDVSHEDPEVKFNWYVDGVEVHNAKTKPREEQYNSTYRVVSVLTVLHQDWLNGKEYKCKVSNKALPAPIEKTISKAKGQPREPQVYTLPPSREEMTKNQVSLWCLVKGFYPSDIAVEWESNGQPENNYKTTPPVLDSDGSFFLYSKLTVDKSRWQQGNVFSCSVMHEALHNHYTQKSLSLSPG chain 2: EAVVTQEPSLTVSPGGTVTLTCRSSTGAVTTSNYANWVQEKPGQLPRGLIGGTNKRAPWVPARFSGSLLGGKAALTLSGAQPEDEAEYFCALWYSNLWVFGGGTKLTVLGQPKAAPSVTLFPPSSEELQANKATLVCLISDFYPGAVKVAWKADGSPVNTGVETTTPSKQSNNKYAASSYLSLTPEQWKSHRSYSCQVTHEGSTVEKTVAPAECSGGGGSEGKSSGSGSESKSTEGKSSGSGSESKSTGGGGSEVQLVESGGGLVQPGGSLKLSCAASGFTFNTYAMNWVRQAPGKGLEWVARIRSKYNNYATYYADSVKDRFTISRDDSKNTAYLQMNNLKTEDTAVYYCVRHGNFGNSYVSWFAYWGQGTLVTVSAASTKGPSVFPLAPSSKSTSGGTAALGCLVKDYFPEPVTVSWNSGALTSGVHTFPAVLQSSGLYSLSSVVTVPSSSLGTQTYICNVNHKPSNTKVDKRVEPKSCDKTHTCPPCPAPEAAGGPSVFLFPPKPKDTLMISRTPEVTCVVVDVSHEDPEVKFNWYVDGVEVHNAKTKPREEQYNSTYRVVSVLTVLHQDWLNGKEYKCKVSNKALPAPIEKTISKAKGQPREPQVYTLPPSREEMTKNQVSLSCAVKGFYPSDIAVEWESNGQPENNYKTTPPVLDSDGSFFLVSKLTVDKSRWQQGNVFSCSVMHEALHNRFTQKSLSLSPG
1.1 | 1.2 | 16.2 RU | 4.3 nM | 5.2 nM | 1 nM | no binding (tested: 1 µM) | 110 RU | B7H6#14/CD3#5 (bispecific antibody, human IgG1, kappa, L234A L235A, scFab-Fc heterodimer) chain 1: DIQMTQSPSSLSASVGDRVTITCKASQNVGKYVAWYQQKPGKAPKSLIYSASNRYDGVPSRFSGSGSGTDFTLTISSLQPEDFATYFCQQYISYPLTFGAGTKLEIKRTVAAPSVFIFPPSDEQLKSGTASVVCLLNNFYPREAKVQWKVDNALQSGNSQESVTEQDSKDSTYSLSSTLTLSKADYEKHKVYACEVTHQGLSSPVTKSFNRGECGGGGSEGKSSGSGSESKSTEGKSSGSGSESKSTGGGGSQVQLVQSGAEVKKPGASVKVSCKASGYTFTNYWMNWMKQAPGQGLEWIGGIYLNGDSTDYNEKFKGKVTMTVDTSTSTVYMELSSLRSEDTAVYYCTRRGDYFGDFWGQGTLVTVSSASTKGPSVFPLAPSSKSTSGGTAALGCLVKDYFPEPVTVSWNSGALTSGVHTFPAVLQSSGLYSLSSVVTVPSSSLGTQTYICNVNHKPSNTKVDKRVEPKSCDKTHTCPPCPAPEAAGGPSVFLFPPKPKDTLMISRTPEVTCVVVDVSHEDPEVKFNWYVDGVEVHNAKTKPREEQYNSTYRVVSVLTVLHQDWLNGKEYKCKVSNKALPAPIEKTISKAKGQPREPQVYTLPPSREEMTKNQVSLWCLVKGFYPSDIAVEWESNGQPENNYKTTPPVLDSDGSFFLYSKLTVDKSRWQQGNVFSCSVMHEALHNHYTQKSLSLSPG chain 2: not shown
